1 substance from publication PMC7063449 can be followed below.

This experiment concerns the target bril-ACKR3WT (human) (UniProt P25106). Nature of the experiment: flow cytometry on cells. A general note: Flow cytometry measures light scatter and fluorescence of single cells or particles in a stream.

bril-ACKR3WT (human), sequence (P25106 2-332): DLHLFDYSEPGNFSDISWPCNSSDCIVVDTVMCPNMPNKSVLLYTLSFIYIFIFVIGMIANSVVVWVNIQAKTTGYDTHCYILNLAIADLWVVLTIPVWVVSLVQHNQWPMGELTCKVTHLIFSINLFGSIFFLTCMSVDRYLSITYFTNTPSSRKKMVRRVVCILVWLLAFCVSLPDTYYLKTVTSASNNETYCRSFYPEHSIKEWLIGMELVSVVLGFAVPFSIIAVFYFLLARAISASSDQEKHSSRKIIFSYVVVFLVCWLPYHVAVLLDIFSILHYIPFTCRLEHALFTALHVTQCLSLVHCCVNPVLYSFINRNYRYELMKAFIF

For the substance “HA-tagged CXCL12P2G (from UniProt P48061 22-93) (ligand)”, the dissociative half-life worked out at 7.2 min.
